This note sets out measurements from US20240132578A1.

What all share (assay): cell-based or functional assay
Test [1] deals with HIV-1 Env of isolate MGRM-C-019 (subtype C), on pseudovirus (HIV-1).
The target in test [2] is HIV-1 Env of isolate MGRM-C-020 (subtype C), on pseudovirus (HIV-1).
Test [3] addresses HIV-1 Env of isolate MGRM-C-023 (subtype C), on pseudovirus (HIV-1).
Test [4] deals with HIV-1 Env of isolate MGRM-C-028 (subtype C), on pseudovirus (HIV-1).
In test [5] the target is HIV-1 Env of isolate MGRM-G-027 (subtype G) (HIV-1).
Test [6] has as its target HIV-1 Env of isolate MGRM-G-028 (subtype G) (HIV-1).
The target in test [7] is HIV-1 92TH021 envelope protein (Env) on pseudovirus (HIV-1).
The target of test [8] is HIV-1 92UG005 envelope protein (Env) on pseudovirus (HIV-1).
The target in test [9] is HIV-1 Env of isolate MGRM-F1-018 (pseudovirus) (HIV-1).
In test [10] the target is HIV-1 JR-CSF Env E466A (HIV-1 (isolate JR-CSF)) (UniProt P20871).
Test [11] deals with HIV-1 JR-CSF Env I415A (HIV-1 (isolate JR-CSF)) (UniProt P20871).
Test [12] addresses HIV-1 JR-CSF Env I423A (I4234 in the source) (HIV-1 (isolate JR-CSF)) (UniProt P20871).
In test [13] the target is HIV-1 JR-CSF Env I424A (HIV-1 (isolate JR-CSF)) (UniProt P20871).
In test [14] the target is HIV-1 MGRM-D-018 Env (HIV-1).
The target in test [15] is HIV-1 MGRM-D-018 envelope protein (Env) on pseudovirus (HIV-1).
The target in test [16] is HIV-1 envelope glycoprotein (Env) of isolate 6535.3, on pseudovirus (HIV-1).
The target in test [17] is HIV-1 envelope glycoprotein (Env) of isolate 93IN905, on pseudovirus (HIV-1).
In test [18] the target is HIV-1 envelope glycoprotein (Env) of isolate 93WR029, subtype A (HIV-1).
The target of test [19] is HIV-1 envelope glycoprotein (Env) of isolate MG RM-A-007, subtype A (HIV-1).
Test [20] has as its target HIV-1 envelope glycoprotein (Env) of isolate MG RM-A-009, subtype A (HIV-1).
In test [21] the target is HIV-1 envelope glycoprotein (Env) of isolate MGRM-Chronic-B-002, on pseudovirus (HIV-1).
Test [22] addresses HIV-1 envelope glycoprotein (Env) of isolate MGRM-Chronic-B-011, on pseudovirus (HIV-1).
Test [23] concerns the target HIV-1 Env of isolate 92RW020 (clade A pseudovirus) (HIV-1).
Test [24] addresses HIV-1 Env of isolate 92UG031 (clade A pseudovirus) (HIV-1).
Test [25] has as its target HIV-1 Env of isolate MGRM-D-026 (clade D pseudovirus) (HIV-1).
Test [26] addresses HIV-1 Env of isolate NL43, clade B (HIV-1).
In test [27] the target is HIV-1 Env of pseudovirus MGRM-F1-010 (clade F) (HIV-1).
Test [28] deals with HIV-1 Env of pseudovirus MGRM-G-017 (HIV-1).
The target of test [29] is HIV-1 MGRM-AE-004 Env (pseudovirus) (HIV-1).
Test [30] concerns the target HIV-1 envelope glycoprotein (Env) of isolate MGRM-C-014 (HIV-1).
For test [31], the target named is HIV-1 envelope glycoprotein (Env) of isolate MGRM-C-023 (HIV-1).

Take 4995_P16 (PGT-145) (antibody): the IC50, single-round pseudovirus neutralization turned out to be 0.005 µg/mL in test [1], 0.712 µg/mL in test [2], 0.201 µg/mL in test [3] and 0.099 µg/mL in [4]. Besides, the IC50 (µg/mL), pseudovirus neutralization in [5] turned out to be 0.433 µg/mL; in test [6] it was 0.046 µg/mL.
For 4980_N08 (PGT-143) (antibody), the IC50, single-round pseudovirus neutralization in test [1] was determined as 0.004 µg/mL; in test [2], 0.797 µg/mL; in test [3], 0.148 µg/mL; in [4] it was 12.4 µg/mL. Also, the results for the IC50 (µg/mL), pseudovirus neutralization in test [5] and in test [6] were over 50 µg/mL and 43 µg/mL, respectively.
In the case of PGV04 (antibody), the values for the IC50 (µg/mL), pseudovirus neutralization in test [5] and in test [6] were 0.125 µg/mL and 0.352 µg/mL, respectively.
In the case of 4970_K22 (PGT-144) (antibody), the IC50, single-round pseudovirus neutralization in test [1] is 0.513 µg/mL; in test [2], 1.29 µg/mL; in test [3], 0.38 µg/mL; in test [4] it was over 50 µg/mL. The IC50 (µg/mL), pseudovirus neutralization in [5] and in test [6] was over 50 µg/mL throughout.
In the case of 4858_P08 (PGT-123) (antibody), the figures for the IC50 (ug/mL), pseudovirus neutralization in test [7], in [8] and in test [15] were over 10 µg/mL, 2.49 µg/mL and 0.0047 µg/mL, respectively. For the same substance, the IC50 (µg/mL), pseudovirus neutralization in test [9] turned out to be 0.054 µg/mL. For the same substance, the Fold IC50 increase relative to wild-type (pseudovirus neutralization) in test [10] amounted to 0.6 fold; in test [11], 0.4 fold; in test [12] it was 1.5 fold; in [13], 0.5 fold. For the same substance, the IC50, pseudovirus neutralization in [14] is 0.0047 µg/mL; in test [16] it was 0.004 µg/mL; in test [17] it was 0.004 µg/mL; in test [18], over 50 µg/mL; in [19], over 50 µg/mL; in [20], 0.004 µg/mL. Also, the figures for the IC50, pseudovirus neutralization in test [21] and in test [22] were 0.234 µg/mL and over 50 µg/mL, respectively.
With 5141_B17 (PGT-126) (antibody), the IC50 (ug/mL), pseudovirus neutralization in test [7] stood at 0.115 µg/mL; in test [8] it was 0.0181 µg/mL; in test [15], 0.0093 µg/mL. The substance also had an IC50 (µg/mL), pseudovirus neutralization in [9] of 14.9 µg/mL. Also, the Fold IC50 increase relative to wild-type (pseudovirus neutralization) in test [10] was found to be 1.4 fold; in test [11] it was 0.3 fold; in test [12], 1.1 fold; in test [13], 0.4 fold. In addition, the IC50, pseudovirus neutralization is 0.0093 µg/mL in [14]; 0.022 µg/mL in test [16]; 0.015 µg/mL in test [17]; over 50 µg/mL in [18]; over 50 µg/mL in [19]; 0.004 µg/mL in [20]. Further, the IC50, pseudovirus neutralization is 0.078 µg/mL in [21] and 0.108 µg/mL in test [22].
As to 4838_L06 (PGT-121) (antibody), the IC50 (ug/mL), pseudovirus neutralization in [7] and in test [8] was over 10 µg/mL in each case. In addition, in [9], the IC50 (µg/mL), pseudovirus neutralization came to 0.04 µg/mL. In addition, the IC50, pseudovirus neutralization was 0.005 µg/mL in test [16]; 0.005 µg/mL in [17]; over 50 µg/mL in [18]; over 50 µg/mL in [19]; 0.006 µg/mL in test [20]; 0.386 µg/mL in [21]. The IC50, pseudovirus neutralization in test [22] was over 50 µg/mL.
Substance 5145_B14 (PGT-127) (antibody) had an IC50 (µg/mL), pseudovirus neutralization in test [9] of 3.59 µg/mL. For the same substance, the Fold IC50 increase relative to wild-type (pseudovirus neutralization) in [10] was 0.9 fold; in test [11], 2.1 fold; in test [12], 0.5 fold; in test [13] it was 2 fold. Moreover, the IC50, pseudovirus neutralization was 0.02 µg/mL in [16]; 0.024 µg/mL in [17]; over 50 µg/mL in [18]; over 50 µg/mL in test [19]; 0.013 µg/mL in test [20]; 0.279 µg/mL in test [21]. In test [22], this substance showed an IC50, pseudovirus neutralization of 0.297 µg/mL.
As to 4995_E20 (PGT-142) (antibody), the IC50, single-round pseudovirus neutralization in test [1] worked out at 0.003 µg/mL; in test [2], 0.446 µg/mL; in [3], 0.087 µg/mL; in test [4], 2.12 µg/mL. Moreover, the results for the IC50 (µg/mL), pseudovirus neutralization in [5] and in test [6] were over 50 µg/mL and 30.3 µg/mL, respectively.
4993_K13 (PGT-141) (antibody): the IC50, single-round pseudovirus neutralization in test [1] turned out to be 0.008 µg/mL; in [2], 1.34 µg/mL; in test [3] it was 0.153 µg/mL; in test [4], 13.8 µg/mL. Also, the IC50 (µg/mL), pseudovirus neutralization in test [5] is over 50 µg/mL; in [6] it was 24.9 µg/mL.
Take 5123_A06 (PGT-125) (antibody): the IC50 (ug/mL), pseudovirus neutralization is 0.0066 µg/mL in test [7], over 10 µg/mL in test [8] and 0.0382 µg/mL in test [15]. The IC50 (µg/mL), pseudovirus neutralization in test [9] is over 50 µg/mL. Besides, the Fold IC50 increase relative to wild-type (pseudovirus neutralization) in [10] stood at 1.6 fold; in test [11] it was 0.3 fold; in test [12], 5 fold; in test [13], 0.7 fold. Further, the IC50, pseudovirus neutralization in [14] was 0.0382 µg/mL; in test [16] it was 0.01 µg/mL; in test [17] it was 0.009 µg/mL; in test [18] it was over 50 µg/mL; in test [19], over 50 µg/mL; in test [20], 0.009 µg/mL. The IC50, pseudovirus neutralization was 0.064 µg/mL in test [21] and 3.23 µg/mL in [22].
For the substance 4877_D15 (PGT-122) (antibody), the IC50 (ug/mL), pseudovirus neutralization in [7] was over 10 µg/mL; in test [8], over 10 µg/mL; in test [15] it was 0.0115 µg/mL. Further, the IC50 (µg/mL), pseudovirus neutralization in test [9] worked out at 0.563 µg/mL. Moreover, the IC50, pseudovirus neutralization in [14] is 0.0115 µg/mL; in test [16] it was 0.006 µg/mL; in test [17] it was 0.013 µg/mL; in [18] it was over 50 µg/mL; in [19], over 50 µg/mL; in test [20] it was 0.012 µg/mL. The IC50, pseudovirus neutralization is 1.8 µg/mL in [21] and over 50 µg/mL in test [22].
1496_C09 (PG9) (TCN-109) (antibody): the IC50 (ug/mL), pseudovirus neutralization in test [7] was 0.103 µg/mL; in test [15] it was 0.0444 µg/mL. Besides, the IC50 (µg/ml), pseudovirus neutralization came out at 0.08 µg/mL in test [23]; 3.08 µg/mL in test [24]; 0.32 µg/mL in [26]; 0.03 µg/mL in test [28]; 0.01 µg/mL in test [29]; 0.64 µg/mL in test [30]. The substance also showed an IC50 (µg/ml), pseudovirus neutralization in [31] of 0.51 µg/mL. The IC50, pseudovirus neutralization in test [25] worked out at 17.5 µg/mL; in test [14], 2.04 µg/mL. For the same substance, the results for the IC50 (µg/mL), pseudovirus neutralization in test [5] and in [6] were 0.007 µg/mL and 0.891 µg/mL, respectively. The substance also gave an IC50 in test [27] of 0.03 µg/mL.
